Columns and labels:
[1] = molecular target: T1, human TrkB extracellular domain expressed with a C-terminal mouse IgG2a Fc tag (human); experiment: SPR, mAb captured (anti-mFc), 37C
T1 construct: also called hTrkB-mFc; hTrkB.mFc
Description: (§1) Equilibrium dissociation constants (KD values) for TrkB binding to purified anti-TrkB monoclonal antibodies were determined using a real-time surface plasmon resonance biosensor using a Biacore 4000 instrument. All binding studies were performed in 10 mM Hepes pH 7.4, 150 mM NaCl, 3 mM EDTA, and 0.05% v/v Surfactant Tween-20 (HBS-ET running buffer) at 25° C. and 37° C. […] Binding studies were performed on following TrkB reagents; human TrkB extracellular domain expressed with a C-terminal myc-myc-hexahistidine tag (hTRKB.mmH; SEQ ID NO: 76; Accession number NP_001018074.1), mouse TrkB extracellular domain expressed with a C-terminal myc-myc-hexahistidine tag (mTRKB.mmH; SEQ ID NO: 79; Accession number NP_001020245), rat TrkB extracellular domain expressed with a C-terminal myc-myc-hexahistidine tag (rTRKB.mmH; SEQ ID NO: 84; Accession number NP_036863.1), and human TrkB extracellular domain expressed with a C-terminal mouse IgG2a Fc tag (hTrkB-mFc; SEQ ID NO: 77; Accession number NP_001018074.1). […] Kinetic association (kₐ) and dissociation (kd) rate constants were determined by fitting the real-time binding sensorgrams to a 1:1 binding model with mass transport limitation using Scrubber 2.0c curve-fitting software. Binding dissociation equilibrium constants (KD) and dissociative half-lives (t½) were calculated from the kinetic rate constants as: […]

[2] = molecular target: T2, rat TrkB extracellular domain expressed with a C-terminal myc-myc-hexahistidine tag (rat, UniProt Q63604 32-429); experiment: SPR, mAb captured (anti-mFc), 37C
T2 construct: also called rTrkB.mmH; rTRKB.mmH
T2 sequence (Q63604 other isoform, or with tags, fused parts or gaps): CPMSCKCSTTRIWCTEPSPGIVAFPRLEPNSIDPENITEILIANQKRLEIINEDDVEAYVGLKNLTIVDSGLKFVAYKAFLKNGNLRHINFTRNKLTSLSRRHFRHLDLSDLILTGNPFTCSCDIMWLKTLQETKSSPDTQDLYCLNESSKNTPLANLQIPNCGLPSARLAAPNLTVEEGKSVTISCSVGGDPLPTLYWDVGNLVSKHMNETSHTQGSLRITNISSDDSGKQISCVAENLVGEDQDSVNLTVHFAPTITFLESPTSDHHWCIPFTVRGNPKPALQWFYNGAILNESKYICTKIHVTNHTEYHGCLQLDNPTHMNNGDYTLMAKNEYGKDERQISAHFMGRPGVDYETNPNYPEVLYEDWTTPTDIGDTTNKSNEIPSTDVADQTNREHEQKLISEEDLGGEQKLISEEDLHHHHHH
Description: as §1

[3] = molecular target: T3, mouse TrkB extracellular domain expressed with a C-terminal myc-myc-hexahistidine tag (mouse, UniProt P15209 32-429); experiment: SPR, mAb captured (anti-mFc), 37C
T3 construct: also called mTrkB.mmH; mTRKB.mmH
T3 sequence (P15209 other isoform, or with tags, fused parts or gaps): as the sequence (Q63604 other isoform, or with tags, fused parts or gaps) above, with M3T, T9S, T10A, I32V, K63R, G84S, T153M, I185L, T394S counted along it
Description: as §1

[4] = molecular target: T4, human TrkB extracellular domain expressed with a C-terminal myc-myc-hexahistidine tag (human, UniProt Q16620 32-430); experiment: SPR, mAb captured (anti-mFc), 37C
T4 construct: also called hTrkB.mmH; hTRKB.mmH
T4 sequence (Q16620 other isoform, or with tags, fused parts or gaps): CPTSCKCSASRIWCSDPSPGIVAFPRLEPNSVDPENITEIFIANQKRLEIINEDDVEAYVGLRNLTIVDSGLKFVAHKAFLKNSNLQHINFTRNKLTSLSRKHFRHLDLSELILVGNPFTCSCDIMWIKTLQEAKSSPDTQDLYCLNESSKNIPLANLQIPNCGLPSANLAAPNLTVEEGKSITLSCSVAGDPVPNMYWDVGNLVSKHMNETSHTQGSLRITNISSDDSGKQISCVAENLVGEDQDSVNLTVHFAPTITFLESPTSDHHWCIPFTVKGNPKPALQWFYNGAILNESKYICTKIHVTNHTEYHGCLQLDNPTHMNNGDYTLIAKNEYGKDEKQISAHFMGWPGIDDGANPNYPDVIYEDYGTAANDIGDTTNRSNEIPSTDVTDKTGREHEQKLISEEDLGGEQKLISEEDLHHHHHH
Description: as §1

[5] = molecular target: T1, human TrkB extracellular domain …; experiment: SPR, mAb captured (anti-mFc), 25C
Description: as §1

[6] = molecular target: T2, rat TrkB extracellular domain expressed …; experiment: SPR, mAb captured (anti-mFc), 25C
Description: as §1

[7] = molecular target: T3, mouse TrkB extracellular domain …; experiment: SPR, mAb captured (anti-mFc), 25C
Description: as §1

[8] = molecular target: T4, human TrkB extracellular domain …; experiment: SPR, mAb captured (anti-mFc), 25C
Description: as §1

[9] = molecular target: T2, rat TrkB extracellular domain expressed …; experiment: SPR, mAb captured (anti-mFc), 25C; 25 C; rTrkB.mmH
Description: as §1, with “All” for “Equilibrium dissociation constants (KD values) for TrkB binding to purified anti-TrkB monoclonal antibodies were determined using a real-time surface plasmon resonance biosensor using a Biacore 4000 instrument. All”

T1 sequence (chain, as listed by the source limits assumed): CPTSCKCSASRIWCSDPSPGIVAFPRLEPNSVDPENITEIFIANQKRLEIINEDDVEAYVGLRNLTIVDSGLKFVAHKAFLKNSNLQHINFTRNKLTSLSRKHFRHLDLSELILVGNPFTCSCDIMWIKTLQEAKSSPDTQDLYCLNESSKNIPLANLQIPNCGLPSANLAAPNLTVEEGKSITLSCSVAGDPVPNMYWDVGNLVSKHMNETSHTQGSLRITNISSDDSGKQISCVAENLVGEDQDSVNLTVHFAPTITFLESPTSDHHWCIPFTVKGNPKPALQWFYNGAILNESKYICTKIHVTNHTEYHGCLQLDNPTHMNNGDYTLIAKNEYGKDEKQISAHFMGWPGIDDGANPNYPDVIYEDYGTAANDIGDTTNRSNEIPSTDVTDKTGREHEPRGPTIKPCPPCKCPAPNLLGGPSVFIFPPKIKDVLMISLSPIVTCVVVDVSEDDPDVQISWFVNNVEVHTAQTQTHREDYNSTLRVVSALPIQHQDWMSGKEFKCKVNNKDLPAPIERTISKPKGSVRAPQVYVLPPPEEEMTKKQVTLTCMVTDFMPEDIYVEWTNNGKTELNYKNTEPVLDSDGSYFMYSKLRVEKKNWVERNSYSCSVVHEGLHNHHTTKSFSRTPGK

Kd [1]: 1.24 nM | koff [1]: 0.000292 s⁻¹ | kon [1]: 235000 M⁻¹ s⁻¹ | t½ [1]: 40 min | Kd [2]: 87.5 nM | koff [2]: 0.00694 s⁻¹ | kon [2]: 79300 M⁻¹ s⁻¹ | t½ [2]: 1.7 min | Kd [3]: 94.1 nM | koff [3]: 0.00696 s⁻¹ | kon [3]: 74000 M⁻¹ s⁻¹ | t½ [3]: 1.7 min | Kd [4]: 135 nM | koff [4]: 0.00831 s⁻¹ | kon [4]: 61300 M⁻¹ s⁻¹ | t½ [4]: 1.4 min | Kd [5]: 1.09 nM | koff [5]: 9.55e-05 s⁻¹ | kon [5]: 88000 M⁻¹ s⁻¹ | t½ [5]: 121 min | Kd [6]: 31 nM | koff [6]: 0.0016 s⁻¹ | kon [6]: 51600 M⁻¹ s⁻¹ | t½ [6]: 7 min | Kd [7]: 40.8 nM | koff [7]: 0.00168 s⁻¹ | kon [7]: 41200 M⁻¹ s⁻¹ | t½ [7]: 7 min | Kd [8]: 41.3 nM | koff [8]: 0.00192 s⁻¹ | kon [8]: 46500 M⁻¹ s⁻¹ | t½ [8]: 6 min | Kd [9]: 31.8 nM
B1: H1M8037C (antibody, mouse IgG1, kappa, V domains shown)
VH: QVQLVQSGAEVKKPGASVKVSCKASGYTFTNYDIIWVRQAPGQGLEWMGYINPYNDGTKYNEKFKGRVTMTRDTSTSTVYMELSSLRSEDTAVYYCARLLKYRRFRYYAIDYWGQGTTVTVSS
VL: DIQMTQSPSSLSASVGDRVTITCRTSENVYSNLAWYQQKPGKAPKLLIYAASNLQSGVPSRFSGSGSGTDYTFTISSLQPEDIATYYCQHFWGSPFTFGQGTKLEIKR
notes: captured by anti-mFc in SPR; also called Comparator; comparator anti-TrkB monoclonal antibody

Reference: patent US20190161551A1 (Regeneron, published 2019)
